The results in this text go back to publication PMC12259950.

For this assay, the target named is 4-1BB receptor (human) (UniProt Q07011). Briefly: ELISA; antigen (4-1BB 0.5 µg/mL in carbonate buffer; BSA or S100P for cross-reactivity) adsorbed on the plate, 37 °C 1 h; blocked with 1% milk powder; culture fluid with VHH mixed 1:1 with 2% milk powder, 1 h 37 °C; detected by 9E10 anti-myc and an HRP conjugate, TMB, 450 nm; 2 technical ….
UniProt Q07011, sequence (Q07011 24-255): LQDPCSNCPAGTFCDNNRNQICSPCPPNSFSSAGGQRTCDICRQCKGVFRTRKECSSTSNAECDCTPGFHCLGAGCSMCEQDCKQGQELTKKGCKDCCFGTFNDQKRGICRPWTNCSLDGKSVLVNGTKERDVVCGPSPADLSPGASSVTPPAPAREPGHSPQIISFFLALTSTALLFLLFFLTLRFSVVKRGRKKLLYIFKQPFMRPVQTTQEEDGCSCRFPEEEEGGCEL

B1: VHH_11 (VHH)
VHH: QVQLVESGGGLVQPGGSLRLSCAASGYSYYYYSMGWFRQAPGQGTEFVAAISSYYYSSYYADSVKGRFTISRDNSKNTLYLQMNSLRAEDTAVYYCAASYYSGSYYSGFDYWGQGTQVTVS
Consider B1, for which the ELISA signal intensity, fold lower than the positive control worked out at 10 fold.
